Results taken from publication PMC7201828, “Comparison of Inhibitor and Substrate Selectivity between Rodent and Human Vascular Adhesion Protein-1” (Mediators of Inflammation, 2020).

How the values were obtained:
Test in all cases: purified protein, by the assay type
[1] = substrate: NCCc1ccc(O)cc1; settings: pH 7.4, 37.0 °C
Method: (§1) The enzymatic activity of recombinant VAP-1 and inhibitor potency was determined using a variation of the fluorometric assay for measuring hydrogen peroxide formation [22]. Briefly, the assay measures the H2O2 generated during the oxidative deamination of an amine substrate (BA for inhibition purposes) by converting Amplex® Red to the fluorescent product, resorufin, via horseradish peroxidase (HRP). […] Stock solutions of Amplex Red (1 mM), HRP (10 U/mL), the substrates (200 μM BA for inhibition), and inhibitor were prepared in reaction buffer and added to the appropriate wells, that the final concentration in each well was 0.05 mM Amplex Red, 0.5 U/mL HRP, and 50 μM BA (saturating condition) in a total reaction volume of 0.1 mL.
(§2) Standard curves were prepared for each plate by serially diluting H2O2 in reaction buffer with equivalent concentrations of Amplex Red and HRP. A 10 μM solution of resorufin was prepared in reaction buffer and was dispensed in duplicate as the positive control for maximum fluorescence. Plates were incubated for 30 minutes at 37°C, protected from light under foil to minimize the resorufin artifactually formed when Amplex Red is exposed to light [28]. The plate was read at 530/35 emission and 590/35 excitation. The mean fluorescence of the background was subtracted from the mean fluorescence of the inhibitor concentration in the presence of BA. The percent control was calculated using equation (1). […] (1) %control=average fluorescence with inhibitor−background/average fluorescence of reaction without inhibitor−background×100, (2) %inhibition=100−%control.
(§3) Both substrates were incubated with recombinant VAP-1 in triplicate on three separate plates.

[2] = substrate: NCc1ccccc1; settings: pH 7.4, 37.0 °C
Method: as §1, §2, §3

[3] = substrate: NCCc1ccccc1; settings: other: recombinant human VAP-1, substrate; pH 7.4; 37.0 °C
Method: as §1, §2, §3

[4] = other: recombinant rat VAP-1, substrate
[5] = other: recombinant human VAP-1, substrate
[6] = other: recombinant mouse VAP-1, substrate

B1: recombinant rat VAP-1 (Rattus norvegicus) (protein)
chain: RSGDGGRLSQPLHCPSVLPSVQPQTHPGQSQPFADLSPEELTAVMSFLIKHLGPGLVDAAQARPSDNCVFSVELQLPAKAAALAHLDRGGPPPVREALAIIFFGGQPKPNVSELVVGPLPHPSYMRDVTVERHGGPLPYYRRPVLTREYQDIQEMIFHRELPQASGLLHHCCFYKRQGHNLLKMTTAPRGLQSGDRATWFGIYYNLSGAGFYPHPIGLELLVDHKALDPALWTIQKVFYQGRYYESLTQLEDMFEAGLVNVVLVPDNGTGGSWSLKSSVPPGRAPPLQFHPEGPRFSVQGSQVRSSLWAFSFGLGAFSGPRIFDIRFQGERVAYEISVQEAIALYGGNSPASMSTCYMDGSFGIGKYSTPLTRGVDCPYLATYVDWHFLLESQTPKTLRDAFCVFEQNQGLPLRRHHSDFYSHYFGGVVETVLVVRSVATLLNYDYVWDMVFHSNGAIEVKFHATGYITSAFFFGAGEKFGNRVAEHTLGTVHTHNAHFKVDLDVAGLKNWAWAEDLAFVPMNVPWQPEFQMQRLQVTRKLLETEEEAAFPLGNATPRYLYLASNHSNKWGHRRGYRIQILSFAGKPLPQESPIEKAFTWGRYHLAVTQRKEEEPSSSSIYNQNDPWTPTVDFTDFISNETIAGEDLVAWVTAGFLHIPHAEDIPNTVTVGNGVGFFLRPYNFFDEDPSFYSPDSIYFRKDQDVTDCEVNSLACLSQTANCVPDLPAFSHGGFTYK
Km [1, 4]: 8.31 µM | Vmax [1, 4]: 1.19 μmoles/min/mg prot | Km [2, 4]: 4.38 ± 0.361 µM | Vmax [2, 4]: 20.2 µmol/min/mg

B2: recombinant human VAP-1 (Homo sapiens) (protein)
chain: GRGGDGGEPSQLPHCPSVSPSAQPWTHPGQSQLFADLSREELTAVMRFLTQRLGPGLVDAAQARPSDNCVFSVELQLPPKAAALAHLDRGSPPPAREALAIVFFGRQPQPNVSELVVGPLPHPSYMRDVTVERHGGPLPYHRRPVLFQEYLDIDQMIFNRELPQASGLLHHCCFYKHRGRNLVTMTTAPRGLQSGDRATWFGLYYNISGAGFFLHHVGLELLVNHKALDPARWTIQKVFYQGRYYDSLAQLEAQFEAGLVNVVLIPDNGTGGSWSLKSPVPPGPAPPLQFYPQGPRFSVQGSRVASSLWTFSFGLGAFSGPRIFDVRFQGERLVYEISLQEALAIYGGNSPAAMTTRYVDGGFGMGKYTTPLTRGVDCPYLATYVDWHFLLESQAPKTIRDAFCVFEQNQGLPLRRHHSDLYSHYFGGLAETVLVVRSMSTLLNYDYVWDTVFHPSGAIEIRFYATGYISSAFLFGATGKYGNQVSEHTLGTVHTHSAHFKVDLDVAGLENWVWAEDMVFVPMAVPWSPEHQLQRLQVTRKLLEMEEQAAFLVGSATPRYLYLASNHSNKWGHPRGYRIQMLSFAGEPLPQNSSMARGFSWERYQLAVTQRKEEEPSSSSVFNQNDPWAPTVDFSDFINNETIAGKDLVAWVTAGFLHIPHAEDIPNTVTVGNGVGFFLRPYNFFDEDPSFYSADSIYFRGDQDAGACEVNPLACLPQAAACAPDLPAFSHGGFSHN
Km [1, 5]: 299 µM | Vmax [1, 5]: 0.40 μmoles/min/mg prot | Km [3]: 5510 ± 5510 µM | Vmax [3]: 7.15 µmol/min/mg | Km [2, 5]: 45.3 ± 50.7 µM | Vmax [2, 5]: 11.2 µmol/min/mg

B3: recombinant mouse VAP-1 (Mus musculus) (protein)
chain: RSGDGGGLSQPLHCPSVLPSVQPRTHPSQSQPFADLSPEELTAVMSFLTKHLGPGLVDAAQARPSDNCVFSVELQLPAKAAALAHLDRGGPPPVREALAIIFFGGQPKPNVSELVVGPLPHPSYMRDVTVERHGGPLPYYRRPVLDREYQDIEEMIFHRELPQASGLLHHCCFYKHQGQNLLTMTTAPRGLQSGDRATWFGLYYNLSGAGFYPHPIGLELLIDHKALDPALWTIQKVFYQGRYYESLTQLEDQFEAGLVNVVLVPNNGTGGSWSLKSSVPPGPAPPLQFHPQGPRFSVQGSQVSSSLWAFSFGLGAFSGPRIFDIRFQGERVAYEISVQEAIALYGGNSPASMSTCYVDGSFGIGKYSTPLIRGVDCPYLATYVDWHFLLESQAPKTLRDAFCVFEQNQGLPLRRHHSDFYSHYFGGVVGTVLVVRSVSTLLNYDYIWDMVFHPNGAIEVKFHATGYISSAFFFGAGEKFGNRVGAHTLGTVHTHSAHFKVDLDVAGLKNWAWAEDMAFVPTIVPWQPEYQMQRLQVTRKLLETEEEAAFPLGGATPRYLYLASNHSNKWGHRRGYRIQILSFAGKPLPQESPIEKAFTWGRYHLAVTQRKEEEPSSSSIFNQNDPWTPTVNFTDFISNETIAGEDLVAWVTAGFLHIPHAEDIPNTVTAGNSVGFFLRPYNFFDEDPSFHSADSIYFREGQDATACEVNPLACLSQTATCAPEIPAFSHGGFAYRDN
Km [2, 6]: 13.1 ± 11.4 µM | Vmax [2, 6]: 20.1 µmol/min/mg
